This data set in a line: hepatic Ceacam1 mRNA and protein levels. As to conditions: glycan changed form; control: Slc35c1 flox/flox mice.

B1: CEACAM1 (Ceacam1): Slc35c1 cKO (protein)
parent chain: MELASAHLHKGQVPWGGLLLTASLLASWSPATTAEVTIEAVPPQVAEDNNVLLLVHNLPLALGAFAWYKGNTTAIDKEIARFVPNSNMNFTGQAYSGREIIYSNGSLLFQMITMKDMGVYTLDMTDENYRRTQATVRFHVHQPVTQPFLQVTNTTVKELDSVTLTCLSNDIGANIQWLFNSQSLQLTERMTLSQNNSILRIDPIKREDAGEYQCEISNPVSVRRSNSIKLDIIFDPTQGGLSDGAIAGIVIGVVAGVALIAGLAYFLYSRKSGGGSDQRDLTEHKPSTSNHNLAPSDNSPNKVDDVAYTVLNFNSQQPNRPTSAPSSPRATETVYSEVKKK
Consider B1, for which the expression_or_secretion entry is on record as “no change”.

The values above are taken from paper PMC11825483.
